Experimental data as given in publication PMC5959753.

Substrate: C[N+](C)(C)[C@@H](Cc1cnc([S+]([O-])C[C@H](N)C(=O)O)[nH]1)C(=O)[O-]
Assay: purified protein
Conditions: pH 8.0, 25 °C, 1 mM DTT

B1: Egt2 (Neurospora crassa OR74A) (protein)
chain: MVATTVELPLQQKADAAQTVTGPLPFGNSLLKEFVLDPAYRNLNHGSFGTIPSAIQQKLRSYQTAAEARPCPFLRYQTPVLLDESRAAVANLLKVPVETVVFVANATMGVNTVLRNIVWSADGKDEILYFDTIYGACGKTIDYVIEDKRGIVSSRCIPLIYPAEDDDVVAAFRDAIKKSREEGKRPRLAVIDVVSSMPGVRFPFEDIVKICKEEEIISCVDGAQGIGMVDLKITETDPDFLISNCHKWLFTPRGCAVFYVPVRNQHLIRSTLPTSHGFVPQVGNRFNPLVPAGNKSAFVSNFEFVGTVDNSPFFCVKDAIKWREEVLGGEERIMEYMTKLAREGGQKVAEILGTRVLENSTGTLIRCAMVNIALPFVVGEDPKAPVKLTEKEEKDVEGLYEIPHEEANMAFKWMYNVLQDEFNTFVPMTFHRRRFWARLSAQVYLEMSDFEWAGKTLKELCERVAKGEYKESA
Km: 155 ± 10 µM
kcat: 8.7 ± 0.1 s⁻¹
